# Assay results as given in patent US20240209100A1 (DIAGONAL THERAPEUTICS, published 2024).
# B1: DGL209 (bispecific antibody)
# heavy 1: QVQLVESGGGLVQAGGSLRLSCAASGRTFSKHAMGWFRQAPGKEREFVAAIDWSGGSTYYADSVKGRFTISRDNAKNTVYLQMDSLKPEDTAVYYCAADSYTDYAQLWLPELESEYDYWGQGTLVTVSSPLAPCPPCPAPEAAGAPSVFLFPPKPKDTLMISRTPEVTCVVVDVSHEDPEVKFNWYVDGVEVHNAKTKPREEQYNSTYRVVSVLTVLHQDWLNGKEYKCKVSNKALPAPIEKTISKAKGQPREPQVCTLPPSRDELTKNQVSLSCAVKGFYPSDIAVEWESNGQPENNYKTTPPVLDSDGSFFLVSKLTVDKSRWQQGNVFSCSVMHEALHNHYTQKSLSLSPGWSHPQFEK
# heavy 2: QLQLVESGGGLVQAGGSLRLSCAASRSITFSHNVMGWYRQAPGKQRELVASIGSGGSTNYVDSVKGRATISRDNAKKTVYLQMNSLKPEDTAVYYCGVVVGVYRGSLGQGTLVTVSSPLAPCPPCPAPEAAGAPSVFLFPPKPKDTLMISRTPEVTCVVVDVSHEDPEVKFNWYVDGVEVHNAKTKPREEQYNSTYRVVSVLTVLHQDWLNGKEYKCKVSNKALPAPIEKTISKAKGQPREPQVYTLPPCRDELTKNQVSLWCLVKGFYPSDIAVEWESNGQPENNYKTTPPVLDSDGSFFLYSKLTVDKSRWQQGNVFSCSVMHEALHNHYTQKSLSLSPGEPEA
# B2: DGL211 (bispecific antibody)
# heavy 1: QVQLVESGGGLVQAGGSLRLSCAASGRTFSKHAMGWFRQAPGKEREFVAAIDWSGGSTYYADSVKGRFTISRDNAKNTVYLQMDSLKPEDTAVYYCAADSYTDYAQLWLPELESEYDYWGQGTLVTVSSEKSYGPPCPPCPAPEAAGAPSVFLFPPKPKDTLMISRTPEVTCVVVDVSHEDPEVKFNWYVDGVEVHNAKTKPREEQYNSTYRVVSVLTVLHQDWLNGKEYKCKVSNKALPAPIEKTISKAKGQPREPQVCTLPPSRDELTKNQVSLSCAVKGFYPSDIAVEWESNGQPENNYKTTPPVLDSDGSFFLVSKLTVDKSRWQQGNVFSCSVMHEALHNHYTQKSLSLSPGWSHPQFEK
# heavy 2: QLQLVESGGGLVQAGGSLRLSCAASRSITFSHNVMGWYRQAPGKQRELVASIGSGGSTNYVDSVKGRATISRDNAKKTVYLQMNSLKPEDTAVYYCGVVVGVYRGSLGQGTLVTVSSEKSYGPPCPPCPAPEAAGAPSVFLFPPKPKDTLMISRTPEVTCVVVDVSHEDPEVKFNWYVDGVEVHNAKTKPREEQYNSTYRVVSVLTVLHQDWLNGKEYKCKVSNKALPAPIEKTISKAKGQPREPQVYTLPPCRDELTKNQVSLWCLVKGFYPSDIAVEWESNGQPENNYKTTPPVLDSDGSFFLYSKLTVDKSRWQQGNVFSCSVMHEALHNHYTQKSLSLSPGEPEA
# B3: DGL212 (bispecific antibody)
# heavy 1: QVQLVESGGGLVQAGGSLRLSCAASGRTFSKHAMGWFRQAPGKEREFVAAIDWSGGSTYYADSVKGRFTISRDNAKNTVYLQMDSLKPEDTAVYYCAADSYTDYAQLWLPELESEYDYWGQGTLVTVSSDKTHTCPPCPAPEAAGAPSVFLFPPKPKDTLMISRTPEVTCVVVDVSHEDPEVKFNWYVDGVEVHNAKTKPREEQYNSTYRVVSVLTVLHQDWLNGKEYKCKVSNKALPAPIEKTISKAKGQPREPQVCTLPPSRDELTKNQVSLSCAVKGFYPSDIAVEWESNGQPENNYKTTPPVLDSDGSFFLVSKLTVDKSRWQQGNVFSCSVMHEALHNHYTQKSLSLSPGWSHPQFEK
# heavy 2: not shown
# B4: DGL213 (bispecific antibody)
# heavy 1: B3 heavy 1
# heavy 2: QLQLVESGGGLVQAGGSLRLSCAASRSITFSHNVMGWYRQAPGKQRELVASIGSGGSTNYVDSVKGRATISRDNAKKTVYLQMNSLKPEDTAVYYCGVVVGVYRGSLGQGTLVTVSSCPPCPAPEAAGAPSVFLFPPKPKDTLMISRTPEVTCVVVDVSHEDPEVKFNWYVDGVEVHNAKTKPREEQYNSTYRVVSVLTVLHQDWLNGKEYKCKVSNKALPAPIEKTISKAKGQPREPQVYTLPPCRDELTKNQVSLWCLVKGFYPSDIAVEWESNGQPENNYKTTPPVLDSDGSFFLYSKLTVDKSRWQQGNVFSCSVMHEALHNHYTQKSLSLSPGEPEA
# B5: DGL208 (bispecific antibody)
# heavy 1: QVQLVESGGGLVQAGGSLRLSCAASGRTFSKHAMGWFRQAPGKEREFVAAIDWSGGSTYYADSVKGRFTISRDNAKNTVYLQMDSLKPEDTAVYYCAADSYTDYAQLWLPELESEYDYWGQGTLVTVSSPLAPDKTHTCPPCPAPEAAGAPSVFLFPPKPKDTLMISRTPEVTCVVVDVSHEDPEVKFNWYVDGVEVHNAKTKPREEQYNSTYRVVSVLTVLHQDWLNGKEYKCKVSNKALPAPIEKTISKAKGQPREPQVCTLPPSRDELTKNQVSLSCAVKGFYPSDIAVEWESNGQPENNYKTTPPVLDSDGSFFLVSKLTVDKSRWQQGNVFSCSVMHEALHNHYTQKSLSLSPGWSHPQFEK
# heavy 2: not shown
# B6: DGL210 (bispecific antibody)
# heavy 1: QVQLVESGGGLVQAGGSLRLSCAASGRTFSKHAMGWFRQAPGKEREFVAAIDWSGGSTYYADSVKGRFTISRDNAKNTVYLQMDSLKPEDTAVYYCAADSYTDYAQLWLPELESEYDYWGQGTLVTVSSGGGGSGGGGSGGGGSGGGGSCPPCPAPEAAGAPSVFLFPPKPKDTLMISRTPEVTCVVVDVSHEDPEVKFNWYVDGVEVHNAKTKPREEQYNSTYRVVSVLTVLHQDWLNGKEYKCKVSNKALPAPIEKTISKAKGQPREPQVCTLPPSRDELTKNQVSLSCAVKGFYPSDIAVEWESNGQPENNYKTTPPVLDSDGSFFLVSKLTVDKSRWQQGNVFSCSVMHEALHNHYTQKSLSLSPGWSHPQFEK
# heavy 2: QLQLVESGGGLVQAGGSLRLSCAASRSITFSHNVMGWYRQAPGKQRELVASIGSGGSTNYVDSVKGRATISRDNAKKTVYLQMNSLKPEDTAVYYCGVVVGVYRGSLGQGTLVTVSSGGGGSGGGGSGGGGSGGGGSCPPCPAPEAAGAPSVFLFPPKPKDTLMISRTPEVTCVVVDVSHEDPEVKFNWYVDGVEVHNAKTKPREEQYNSTYRVVSVLTVLHQDWLNGKEYKCKVSNKALPAPIEKTISKAKGQPREPQVYTLPPCRDELTKNQVSLWCLVKGFYPSDIAVEWESNGQPENNYKTTPPVLDSDGSFFLYSKLTVDKSRWQQGNVFSCSVMHEALHNHYTQKSLSLSPGEPEA
# B7: DGL097 (bispecific antibody, V domains shown)
# V domain 1: QVQLVESGGGLVQAGGSLRLSCAASGRTFSSYDMGWFRQAPGKEREFVAALRWSGGSTSYADSVKGRFTISRDNAKNTVYLHMNSLKPEDTAVYYCAATLETDSGTYWADYWGQGTQVTVSS
# V domain 2: QVQLVESGGGLVQAGGSLRLSCVASGTFFQIHVMGWYRQAPGKQRELVAFIINNGGTRYADSVKGRFTISRDYAKNTVYLQMNSLKPEDTAVYYCNTEGTYRGRYSTDNWGQGTQVTVSS
# B8: DGL094 (bispecific antibody, V domains shown)
# V domain 1: QVQLVESGGGLVQAGGSLRLSCAASGRTFSSYTMGWFRQAPGKEREFVAAISWSAGRTYYADSVKGRFTISRDNAKNTVYLQMNSLKPEDTAVYFCAAEEAPDWAPIDCSGYGCLSLYDYWGQGTQVTVSS
# V domain 2: QVQLVESGGGLVLPGESLRLSCVVSGTIDNINSMGWYRQAPGKQRELVAYITKLGSANYADSVEGRFTISRDNAKKTVHLQMNSLKPEDTAVYYCHANERGRITWAQGTQVTVSS
# B9: DGL049 (bispecific antibody, V domains shown)
# V domain 1: QVQLQESGGGLVQAGGSLRLSCIVSGSIVRIDFMGWYRQAPGKKRDMVATITTGGSTNYADSVKDRFTISRDNAKNTLSLQVNDLKPEDTAVYYCNSVVHTTSRPPVLYWGQGTQVTVSS
# V domain 2: QVQLVESGGDLVLPGGSLKLSCEASGSISSRNSMAWYRRAPGKQRELVAAISSISSGGRTDYADFVKGRFTIFRDTAKNMVYLQMNNLKPEDTAVYDCDDPIRVASLAYDDWGQGTQVTVSS
# B10: DGL091 (bispecific antibody, V domains shown)
# V domain 1: QVQLVESGGGLVQAGGSLRLSCAASGRTFSKHAMGWFRQAPGKEREFVAAIDWSGGSTYYADSVKGRFTISRDNAKNTVYLQMDSLKPEDTAVYYCAADSYTDYAQLWLPELESEYDYWGQGTQVTVSS
# V domain 2: QVQLVESGGGLVQAGDSLRLSCVASERTFSSYTMGWFRQAPGKEREFTAALSWWNGGISTAYADSVKGRFTISRDNAKNTVYLQMNSLKTEDTALYYCAAARDRMPRADEYDYWGQGTQVTVSS
# B11: DGL092 (bispecific antibody, V domains shown)
# V domain 1: B10 V domain 1
# V domain 2: EVQLVESGGGLVQAGGSLRLSCAASGRTFRNYHMGWFRQAPGQEREFVAAISSSGGKTSYPDSVNGRFTISRDNAKNTVYLQMNNLKVEDTAVYYCAADPRYWVAAGGSEPENVEVWGQGTLVTVSS
# Target: T1, IL-18 receptor (IL-18Rα/IL-18Rβ) overexpressed on HEK-Blue IL-18 cells (Homo sapiens (Human), UniProt Q13478 19-541; O95256 20-599)
# T1 sequence 1: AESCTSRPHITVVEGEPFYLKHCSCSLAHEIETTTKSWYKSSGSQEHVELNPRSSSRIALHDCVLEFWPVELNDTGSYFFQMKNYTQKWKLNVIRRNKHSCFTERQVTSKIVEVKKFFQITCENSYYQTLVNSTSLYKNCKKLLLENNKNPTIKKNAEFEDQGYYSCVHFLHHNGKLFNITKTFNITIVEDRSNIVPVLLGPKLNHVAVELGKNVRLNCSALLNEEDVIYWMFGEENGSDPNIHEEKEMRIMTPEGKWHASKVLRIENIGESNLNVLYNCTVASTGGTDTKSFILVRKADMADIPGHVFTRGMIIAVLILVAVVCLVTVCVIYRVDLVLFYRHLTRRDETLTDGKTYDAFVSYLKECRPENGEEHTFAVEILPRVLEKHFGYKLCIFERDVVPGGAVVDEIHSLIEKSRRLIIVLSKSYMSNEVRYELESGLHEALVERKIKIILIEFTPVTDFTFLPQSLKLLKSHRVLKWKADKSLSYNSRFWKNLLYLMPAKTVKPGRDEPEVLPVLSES
# T1 sequence 2: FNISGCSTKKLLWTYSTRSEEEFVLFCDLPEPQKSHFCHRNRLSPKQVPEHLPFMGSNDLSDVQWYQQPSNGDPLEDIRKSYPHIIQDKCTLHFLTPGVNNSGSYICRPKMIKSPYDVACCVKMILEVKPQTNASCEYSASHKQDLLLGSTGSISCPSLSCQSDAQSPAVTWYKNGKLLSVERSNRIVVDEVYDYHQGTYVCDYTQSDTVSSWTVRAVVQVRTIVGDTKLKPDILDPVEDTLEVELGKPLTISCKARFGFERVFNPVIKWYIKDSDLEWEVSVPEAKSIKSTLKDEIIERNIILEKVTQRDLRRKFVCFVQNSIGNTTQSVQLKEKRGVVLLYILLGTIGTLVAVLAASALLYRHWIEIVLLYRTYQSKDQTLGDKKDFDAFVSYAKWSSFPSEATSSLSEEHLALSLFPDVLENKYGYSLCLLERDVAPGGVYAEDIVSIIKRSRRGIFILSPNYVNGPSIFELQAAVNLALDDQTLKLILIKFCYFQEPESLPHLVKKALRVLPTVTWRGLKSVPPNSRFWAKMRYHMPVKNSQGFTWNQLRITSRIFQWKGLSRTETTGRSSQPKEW
# Assay: cell-based or functional assay
Binder,HEK-Blue IL-18: Abs 405 at 100 nM,HEK-Blue IL-18: Fold over Background
B1,2 Abs,8.7 fold
B2,1.5 Abs,6.7 fold
B3,1.4 Abs,6.2 fold
B4,1.5 Abs,6.4 fold
B5,1.4 Abs,5.9 fold
B6,1.1 Abs,4.6 fold

# Target: T1, IL-18 receptor (IL-18Rα/IL-18Rβ) …
# Assay: cell-based or functional assay
# Remark: another data set of the same source
Binder,HEK-Blue IL-18: Abs405 (Emax),HEK-Blue IL-18: EC50
B7,0.45 Abs,0.014 nM
B8,0.7 Abs,0.019 nM
B9,0.34 Abs,0.01 nM
B10,0.35 Abs,0.032 nM
B11,0.61 Abs,0.019 nM
